Experimental data from US20240076343A1 (CEPHALON, published 2024).
Values belong to the binder of their own block, whether it stands above or below them.

Tests used:
[1] = molecular target: T1, recombinant His-tagged human PD-1 (Acro Biosystems) (human, UniProt Q15116 25-167); test: SPR, steady state, separate experiment; separate experiment; steady state KD
T1 construct: also called recombinant human PD-1; human PD-1 (Acro Biosystems, Cat #PD-1-H5221-100 ug)

[2] = molecular target: human PD-1 on Jurkat Effector cells of the PD-1/PD-L1 blockade bioassay (Promega, Cat #J1255) (human, UniProt Q15116 25-288); test: cell-based or functional assay
human PD-1 on Jurkat Effector cells of the PD-1/PD-L1 blockade bioassay (Promega, Cat #J1255), sequence (Q15116 25-288): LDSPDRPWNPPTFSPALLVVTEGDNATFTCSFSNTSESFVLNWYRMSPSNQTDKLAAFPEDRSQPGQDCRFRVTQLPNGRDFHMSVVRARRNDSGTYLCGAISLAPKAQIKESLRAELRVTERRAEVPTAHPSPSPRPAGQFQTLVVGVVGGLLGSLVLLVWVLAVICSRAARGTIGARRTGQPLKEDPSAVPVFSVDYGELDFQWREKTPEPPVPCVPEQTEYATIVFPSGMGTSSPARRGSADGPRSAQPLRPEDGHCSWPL

[3] = molecular target: T2, human PD-1 (amino acids 1-185) on transfected Jurkat cells (human, UniProt Q15116 21-185); test: flow cytometry, Jurkat+hPD-1 cells
T2 construct: also called hPD-1; Jurkat+hPD-1 cell line
T2 sequence (Q15116 21-185 limits assumed): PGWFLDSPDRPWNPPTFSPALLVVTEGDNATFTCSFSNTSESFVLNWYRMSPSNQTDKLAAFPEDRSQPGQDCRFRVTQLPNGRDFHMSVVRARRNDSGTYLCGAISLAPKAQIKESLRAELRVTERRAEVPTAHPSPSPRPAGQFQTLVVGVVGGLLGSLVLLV

[4] = molecular target: T3, native human PD-1 on PMA/ionomycin-activated primary human T cells (human, UniProt Q15116 25-288); test: flow cytometry, activated human CD3+CD4+ T cells
T3 construct: whole, on cells; also called native hPD-1
T3 sequence (Q15116 25-288): as the sequence (Q15116 25-288) above
Procedure: (§1) The binding of anti-hPD-1 antibodies and anti-hPD-1-attenuated hIL-2 fusion proteins on activated primary T cells expressing hPD-1 was examined by flow cytometry. […] Cells were then stained with 1:20 dilution of Allophycocyanin-conjugated anti-human IgG Fc to detect bound antibody. To delineate immune subsets, a cocktail of surface markers included anti-human CD3, anti-CD4, and anti-CD8 antibodies was used. […] Cells were analyzed on the BD Fortessa (BD Biosciences), FlowJo software version 10 was used to gate on T cell subsets then calculate gMFI of the allophycocyanin signal. EC₅₀ values were calculated from the gMFI across the titrated concentrations using GraphPad Prism 7 software. To test the binding of anti-hPD-1-hIL-2 fusion proteins, cryopreserved CD3+ T cells were activated with PMA/ionomycin and flow cytometry binding was performed identically as described above.

[5] = molecular target: T3, native human PD-1 on …; test: flow cytometry, activated human CD3+CD8+ T cells
Procedure: as §1

[6] = molecular target: T2, human PD-1 (amino acids 1-185) on …; test: flow cytometry on Jurkat cells expressing hPD-1; no competitor
Procedure: (§2) Briefly, Jurkat cells stably expressing hPD-1 (as described in Protocol A above) were washed and re-suspended in FACS buffer containing 1:50 dilution of human FcR Blocking reagent. Cells were incubated at 4° C. for 10 minutes and washed. […] Cells were washed and incubated with test antibodies or antibody-attenuated hIL-2 fusion proteins serially diluted six-fold for an 8-point curve in 100 μL volume for one hour at 4° C. To detect bound test anti-hPD-1 antibodies or anti-hPD-1-attenuated hIL-2 fusion proteins, cells were washed again and incubated with 1:40 dilution of Allophycocyanin-conjugated anti-human IgG Fc monoclonal antibody for 45 minutes on ice. Cells were washed and re-suspended in FACS buffer containing 1:1000 dilution of Sytox Green (Thermo Fisher). […] Flow cytometry was carried out on the BD Canto II, BD Celesta, or BD Fortessa (BD Biosciences) flow cytometers and gMFI was calculated using FlowJo software version 10. EC₅₀ values were calculated from the gMFI of the Allophycocyanin signal across the titrated concentrations using GraphPad Prism 7 software.

[7] = molecular target: T2, human PD-1 (amino acids 1-185) on …; test: flow cytometry, Jurkat+hPD-1 cells; competitor 10 µM anti-hPD-1 #1-mIgG2b-N297A
Procedure: as §2

[8] = molecular target: T2, human PD-1 (amino acids 1-185) on …; test: flow cytometry on Jurkat cells expressing hPD-1; cells pre-incubated with 10 µM anti-hPD-1 #1-mIgG2b-N297A
Procedure: as §2

[9] = molecular target: T2, human PD-1 (amino acids 1-185) on …; test: flow cytometry on Jurkat cells expressing hPD-1; cells pre-incubated with 10 µM anti-hPD-1 #2-mIgG2b-N297A
Procedure: as §2

[10] = molecular target: T4, native cynomolgus PD-1 on PMA/ionomycin-activated cynomolgus T cells (cynomolgus, UniProt B0LAJ3 25-288); test: flow cytometry, activated cynomolgus CD3+CD4+ T cells
T4 sequence (B0LAJ3 entry or part of it limits assumed): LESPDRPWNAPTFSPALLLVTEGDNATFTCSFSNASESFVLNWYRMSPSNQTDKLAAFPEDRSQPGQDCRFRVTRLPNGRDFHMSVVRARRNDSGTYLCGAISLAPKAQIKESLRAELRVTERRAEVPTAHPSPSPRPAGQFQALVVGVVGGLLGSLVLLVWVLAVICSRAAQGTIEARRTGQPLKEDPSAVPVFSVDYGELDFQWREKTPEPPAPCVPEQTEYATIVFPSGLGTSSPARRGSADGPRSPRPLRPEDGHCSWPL
Procedure: (§3) Human PD-1 antibody-attenuated hIL-2 fusion proteins were also tested for binding to activated cynomolgus T cells using flow cytometry. […] 24 hours later, cells were stained using the same procedure as binding to human PD-1 primary cells described above except cynomolgus cross-reactive markers were used. FlowJo software version 10 was used to gate on live, CD3⁺CD4⁺ or CD3⁺CD8⁺ T cells and then to calculate gMFI of the Allophycocyanin signal. EC₅₀ values were calculated from the gMFI across the titrated concentrations of anti-hPD-1 antibodies or hPD-1 antibody-attenuated hIL-2 fusion proteins using GraphPad Prism 7 software.

[11] = molecular target: T4, native cynomolgus PD-1 on …; test: flow cytometry, activated cynomolgus CD3+CD8+ T cells
Procedure: as §3

[12] = molecular target: T2, human PD-1 (amino acids 1-185) on …; test: flow cytometry on Jurkat cells expressing hPD-1; no competitor; remark: listed apart in the source
Procedure: as §2

[13] = molecular target: T2, human PD-1 (amino acids 1-185) on …; test: flow cytometry on Jurkat cells expressing hPD-1; cells pre-incubated with 10 µM anti-hPD-1 #1-mIgG2b-N297A; remark: listed apart in the source
Procedure: as §2

[14] = molecular target: T2, human PD-1 (amino acids 1-185) on …; test: flow cytometry on Jurkat cells expressing hPD-1; cells pre-incubated with 10 µM anti-hPD-1 #2-mIgG2b-N297A; remark: listed apart in the source

T1 sequence (Q15116 25-167 limits assumed): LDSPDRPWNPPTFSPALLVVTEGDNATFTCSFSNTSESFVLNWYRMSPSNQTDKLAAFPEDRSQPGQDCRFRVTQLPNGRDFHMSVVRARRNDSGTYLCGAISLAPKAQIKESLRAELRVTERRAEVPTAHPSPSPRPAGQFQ

- Kd [1]: 1.23 nM
B1: H7-632-hIgG1-LAGA (antibody, V domains shown)
VH: EVQLLESGGGLVQPGGSLRLSCAASGFTFKSYAMHWVRQAPGKGLEWVSAIVYSGGSTYYADSVKGRFTISRDNSKNTLYLQMNSLRAEDTAVYYCAKYDRASYFYDAMDVWGQGTTVTVSS
VL: EIVLTQSPGTLSLSPGERATLSCRASQSISSSFLAWYQQKPGQAPRLLIYDASDRATGIPDRFSGSGSGTDFTLTISRLEPEDFAVYYCQQYYDWPPLSFGGGTKVEIKR

- luminescence (RLU), PD-1/PD-L1 blockade bioassay [2]: ~3000 RLU
- EC50 [3]: 2 to 4 nM
- EC50 [4]: 12 nM
- EC50 [5]: 16 nM
- EC50 (read off the curve) [6]: ~2 nM
- fold shift of the dose-titration curve [7]: < 10 fold
- EC50 (read off the curve) [8]: ~9 nM
- EC50 (read off the curve) [9]: ~8 nM
B2: C51E6-5-hIgG4 (antibody, V domains shown)
VH: QVQLVQSGSELKKPGASVKVSCKASGYSLYGTSMHWVRQAPGQGLEWMGYISPFTGRATYAQGFTGRFVFSLDTSVSTAYLQISSLKAEDTAVYYCARDYDYRYYYAMDYWGQGTTVTVSS
VL: EIVLTQSPDFQSVTPKEKVTITCTASESVPPQFLHWYQQKPDQSPKLLIYASRERASGVPSRFSGSGSGTDFTLTINSLEAEDAATYYCHQFHRSPLTFGGGTKLEIKR

- luminescence (RLU), PD-1/PD-L1 blockade bioassay [2]: ~3000 RLU
- EC50 [4]: 0.1 to 0.7 nM
- EC50 [5]: 0.1 to 0.8 nM
- EC50 [10]: 0.09 nM
- EC50 [11]: 0.08 nM
- EC50 (read off the curve) [12]: ~0.3 nM
- fold shift of the dose-titration curve [7]: < 10 fold
- EC50 (read off the curve) [13]: ~0.5 nM
- EC50 (read off the curve) [14]: ~2 nM
B3: 2H7-hIgG4 (antibody)
heavy: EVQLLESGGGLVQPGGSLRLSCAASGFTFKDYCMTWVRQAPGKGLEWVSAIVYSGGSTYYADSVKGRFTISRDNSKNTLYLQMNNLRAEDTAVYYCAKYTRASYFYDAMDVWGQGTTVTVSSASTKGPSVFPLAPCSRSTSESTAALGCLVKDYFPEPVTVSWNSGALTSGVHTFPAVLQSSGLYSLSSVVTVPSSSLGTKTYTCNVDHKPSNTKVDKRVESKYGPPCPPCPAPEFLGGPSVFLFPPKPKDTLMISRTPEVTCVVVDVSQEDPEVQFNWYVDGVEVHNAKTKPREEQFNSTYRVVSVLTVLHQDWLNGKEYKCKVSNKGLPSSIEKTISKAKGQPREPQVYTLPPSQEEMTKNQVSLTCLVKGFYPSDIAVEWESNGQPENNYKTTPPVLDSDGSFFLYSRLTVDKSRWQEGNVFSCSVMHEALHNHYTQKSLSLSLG
light: EIVLTQSPGTLSLSPGERATLSCRASQSIGKSFLAWYQQKPGQAPRLLIYDASTRAADIPARFSGSGSGTDFTLTISSLEPEDFAVYYCQQYYDWPPLSFGGGTKVEIKRTVAAPSVFIFPPSDEQLKSGTASVVCLLNNFYPREAKVQWKVDNALQSGNSQESVTEQDSKDSTYSLSSTLTLSKADYEKHKVYACEVTHQGLSSPVTKSFNRGEC
